Measurements: patent publication US8119594B1, “Method of modulating integrin mediated cellular activity and agents useful for same” (Inter-K Pty Limited, priority 1999, dated 2012)
Where a SMILES comes first, the peptide text is derived from it. Where no end group is shown, it is not given here. The star is where a group is joined. Biotin = O=C1N[C@H]2[C@H](CS[C@H]2CCCCC(=O)*)N1

What was measured:
[1] = system: gelatinase B secretion by SW480 β6 transfectants; assay: Gelatinase B secretion by gelatin zymogram; assay type: cell-based, human; details: 40 μM; 48 hours; serum-free; compared with controls
Procedure: SW480 β6 transfectants were cultured under serum-free conditions for 48 hours in the absence/presence of the MEK inhibitor PD98059 (40 μM) or DMSO (vehicle control). Tumour-conditioned medium was assayed for gelatinase B by analysis of equal protein loads in a gelatin zymogram.

[2] = system: p42/p44 MAP kinase activity in WiDr cells; assay: MAP kinase assay in WiDr cells after serum stimulation; assay type: cell-based, human; details: WiDr wild-type; inhibitor 40 μM added one hour before serum
Procedure: (§1) Cultures of WiDr and HT29 mock and antisense β6 transfectants were established by seeding 1×10^6 cells/5 ml of culture medium in 25 cm^2 tissue culture flasks. Cells were incubated at 37° C. in humidified CO2 for 24 hours before serum starvation in serum-free medium for the next 16 hours. Foetal calf serum was then added to a final concentration of 10% for 30 mins before MAP kinase assays were performed. […] The ability of cells to transfer phosphate from [γ^32P]-ATP to a synthetic peptide that contains specifically a p42/p44 MAP kinase phosphorylation site was measured as described in the manufacturer's instructions. [^32P]-labelled peptides were spotted onto PE1-cellulose paper, unbound radioactivity was washed with 75 mM phosphoric acid and bound [^32P]-labelled peptides were measured by liquid scintillation counting. Protein estimation was performed on each cell lysate used and enzyme activity calculated as described in the manufacturer's instructions. […]
(§2) The effect of MEK (MAP kinase kinase) inhibitors U0126 and PD98059 on MAP kinase activity in WiDr and HT29 wild-type cells was tested in the absence/presence of serum. […] Serum was then added for 30 min and MAP kinase activity assessed before and after addition of serum. […]

[3] = system: p42/p44 MAP kinase activity in HT29 cells; assay: MAP kinase assay in HT29 cells after serum stimulation; assay type: cell-based, human; details: HT29 wild-type; inhibitor 40 μM added one hour before serum
Procedure: as §1, §2

[4] = system: SW480 β6-expressing colon cancer cells; details: for inhibition of cell proliferation (WST-1): SW480 β6-expressing, 30 μm, 24 hours, serum-free medium, FIG. 29
Procedure: HT29 and SW480 β6-expressing colon cancer cell lines were seeded into wells of 96-well microtitre plates (Nunclon) in Dulbecco's Modified Eagle's Medium (DMEM) supplemented with 10% foetal bovine serum, glutamine, Hepes, and antibiotics. Seeding cell densities were 3×10^3 cells per triplicate well for each condition tested and after 24 hours incubation of cell cultures in 5% CO2, 100% humidity at 37° C., the culture medium was exchanged for serum-free DMEM medium supplemented with insulin, transferrin, selenous acid, hydrocortisone, non-essential amino acids, glutamine, Hepes and antibiotics containing either peptide [sequence] (SEQ ID NO. 2) alone or penetratin-peptide complex at a concentration of 10 μm for HT29 cells or 30 μm for SW480 β6-expressing cells. Cell cultures were incubated for a further 24 hours following which cultures were photographed (Kodak Techpan Film at 100 ASA setting) and the experiments terminated by addition of the cell proliferation reagent WST-1 (Boehringer Mannheim) to monitor effects of the peptide on cell growth.
SW480 mock and SW480 β6 transfectants were cultured in DMEM medium supplemented with 1% foetal bovine serum in the presence of 20 μM seq. […] Percentage inhibition was assessed by the WST-1 colorimetric dehydrogenase assay described in Example 6.
Growth inhibition of SW480 cells expressing full length wild-type β6 exposed to seq.4 coupled to penetratin or [sequence] (SEQ ID NO. 2) peptide coupled to penetratin (5, 10, 20, 30 μM in DMEM minus foetal bovine serum) but which peptide contained alanine substitutions at the four positions indicated was assessed.

HT29 colon cancer cells = assay: WST-1 cell proliferation assay in HT29 cells; assay type: cell-based, human; details: 10 μm, 24 hours, serum-free medium, FIG. 28
Procedure: HT29 and SW480 β6-expressing colon cancer cell lines were seeded into wells of 96-well microtitre plates (Nunclon) in Dulbecco's Modified Eagle's Medium (DMEM) supplemented with 10% foetal bovine serum, glutamine, Hepes, and antibiotics. […] The cell proliferation reagent WST-1 is designed to be used for the non-radioactive, spectrophotometric quantification of cell growth and viability in proliferation and chemosensitivity assays. […]
In particular, at the termination of experiments, 30 μl of WST-1 was added to 270 μl culture medium volume in each microtitre well and the colour change quantitated in an ELISA plate reader by measuring absorbance of the formazan product at 450 nm (using a reference wavelength of more than 600 nm). The mean absorbance readings from triplicate wells (±standard error of the means) after subtraction of background control wells (culture medium without cells) was determined.

ERK2 = target: T1, ERK2 (Mus musculus, UniProt P63085); assay: ELISA binding of ERK2 to biotinylated integrin cytoplasmic domain peptides; details: for binding of ERK2 to integrin β subunit cytoplasmic domain peptides: corrected for non-specific binding, FIG. 34; for binding of ERK2 (thrombin cleaved): ERK2 cleaved from GST-ERK2 by thrombin, compared to seq. 4, FIG. 23; for binding of GST.ERK2 to shorter test peptides: range of peptide concentrations, seq. 4 compared to fragment 2, seq. 3 compared to seq. 4, FIG. 20; for binding of non-phosphorylated ERK2: over a range of concentrations of ERK2, compared to fragments 1, 3 and 4, FIG. 18
T1 construct: made in house
T1 sequence (P63085 whole entry, the tested form may be a part): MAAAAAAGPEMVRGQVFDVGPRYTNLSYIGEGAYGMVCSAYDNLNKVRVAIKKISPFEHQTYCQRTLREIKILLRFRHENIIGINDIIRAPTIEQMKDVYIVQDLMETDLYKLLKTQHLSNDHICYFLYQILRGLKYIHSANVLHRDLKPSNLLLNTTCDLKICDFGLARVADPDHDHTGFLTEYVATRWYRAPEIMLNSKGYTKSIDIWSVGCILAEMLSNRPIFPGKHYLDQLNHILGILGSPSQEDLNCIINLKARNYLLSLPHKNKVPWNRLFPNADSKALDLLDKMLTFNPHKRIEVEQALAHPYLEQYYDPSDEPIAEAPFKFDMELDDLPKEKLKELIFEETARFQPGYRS
Procedure: Peptide fragments corresponding to regions of the cytoplasmic tail domain of the β6 subunit were screened in an enzyme-linked immunosorbent assay (ELISA) for binding with ERK2. The […] β6 cytoplasmic tail is shown in FIG. 16 as are the amino acid sequences for the cytoplasmic domains of the β1 to β3 subunits. In particular, four synthetic peptides designated fragment 1 to fragment 4 were prepared and biotinylated at the N-terminal end of each, respectively (Auspep Pty Ltd, Melbourne Australia).
(§3) Overlapping biotinylated fragments 1 to 4 were coated onto streptavidin coated polystyrene plates (Pierce, Rockford Ill. USA, Cat No. 15125) and the ELISA performed substantially according to manufacturers instructions. Briefly, wells are washed with 3×200 μl of wash buffer (TBS, 0.1% BSA, 0.05% Tween 20 or SuperBlock™ blocking buffer in TBS, Pierce, Prod. No. 37535) prior to addition of biotinylated peptides (100 μl) and incubation for 1 hr at room temperature to allow for capture of the peptides on the plate. Following another washing step, peptides were overlayed with GST-ERK, ERK (or JNK-1) alone at a volume of 100 μl per well, and the plates incubated for a further 1 hr at room temperature before removal of any unbound ERK by further washing.
Binding of ERK to the peptides is detected using 100 μl anti-ERK1/2 mAb SC1647 (Santa Cruz) as the primary antibody at a dilution of 1:700 (isotype matched antibody IgG2b is used as a control). This is followed by another washing step and addition of 100 μl rabbit anti-mouse antibody (Biorad) conjugated to alkaline phosphatase at a concentration of 1:1000 for 30 minutes again at room temperature. A 100 μl aliquot of detection reagent (alkaline phosphatase detection kit-Biorad) is then introduced into each well after a final washing step and allowed to react for 15-30 minutes at room temperature in the dark before absorbance is measured at 405 nm. All dilutions of peptides, MAP kinase and antibodies were performed using the wash buffer. GST-ERK is a fusion protein consisting of ERK coupled to glutathione-S-transferase and purified from host cells transfected with pGEX vector.

JNK-1 = target: T2, JNK-1 (Homo sapiens, UniProt P45983); assay: ELISA binding of JNK-1 to β6 cytoplasmic tail peptide; details: JNK-1 0.05-1.5 μm/100 μl; increasing peptide concentrations; FIG. 24
T2 construct: purchased Santa Cruz
T2 sequence (P45983 whole entry, species assumed): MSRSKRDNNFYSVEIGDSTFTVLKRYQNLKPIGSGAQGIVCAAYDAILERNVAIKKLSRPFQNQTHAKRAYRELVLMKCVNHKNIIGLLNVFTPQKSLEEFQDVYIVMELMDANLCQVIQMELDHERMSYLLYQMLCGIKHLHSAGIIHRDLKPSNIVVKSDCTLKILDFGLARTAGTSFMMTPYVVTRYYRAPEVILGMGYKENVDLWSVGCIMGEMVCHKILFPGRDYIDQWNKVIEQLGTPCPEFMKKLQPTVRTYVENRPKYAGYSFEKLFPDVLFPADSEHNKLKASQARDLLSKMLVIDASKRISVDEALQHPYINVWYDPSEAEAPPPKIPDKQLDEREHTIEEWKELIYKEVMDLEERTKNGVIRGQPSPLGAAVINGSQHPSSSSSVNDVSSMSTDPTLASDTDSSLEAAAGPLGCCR
Procedure: as §3
Briefly, 0.05-1.5 μm/100 μl of JNK-1 (Santa Cruz) was aliquoted into wells of a 96 well culture place containing increasing concentrations of the β6 cytoplasmic domain tail peptide used in Example 3. For comparison purposes, non-phosphorylated GST-ERK2 (0.05-1.5 μm/100 μl) was aliquoted into wells containing β6 cytoplasmic tail peptide or peptide fragments 1 or 2, respectively. Binding of JNK-1 was detected using mouse anti-JNK-1 mAb SC 474-G (Santa Cruz) and HRP-conjugated goat anti-mouse antibody.

COc1cccc(-c2cc(=O)c3ccccc3o2)c1N [PD98059]
gelatinase B secretion [1]: reduced gelatinase B secretion | serum-stimulated MAP kinase activity [2]: inhibitable | serum-stimulated MAP kinase activity [3]: inhibitable

N#CC(=C(/N)Sc1ccccc1N)/C(C#N)=C(\N)Sc1ccccc1N [U0126]
serum-stimulated MAP kinase activity [2]: inhibitable | serum-stimulated MAP kinase activity [3]: inhibitable

CC[C@H](C)[C@H](NC(=O)[C@H](CCCCN)NC(=O)[C@@H](NC(=O)[C@H](CCC(N)=O)NC(=O)[C@@H](N)CCCNC(=N)N)[C@@H](C)CC)C(=O)N[C@@H](Cc1c[nH]c2ccccc12)C(=O)N[C@@H](Cc1ccccc1)C(=O)N[C@@H](CCC(N)=O)C(=O)N[C@@H](CC(N)=O)C(=O)N[C@@H](CCCNC(=N)N)C(=O)N[C@@H](CCCNC(=N)N)C(=O)N[C@@H](CCSC)C(=O)N[C@@H](CCCCN)C(=O)N[C@@H](Cc1c[nH]c2ccccc12)C(=O)N[C@@H](CCCCN)C(=O)N[C@@H](CCCCN)C(=O)N[C@@H](CCCNC(=N)N)C(=O)N[C@@H](CO)C(=O)N[C@@H](CCCCN)C(=O)N[C@@H](C)C(=O)N[C@@H](CCCCN)C(=O)N[C@@H](Cc1c[nH]c2ccccc12)C(=O)N[C@@H](CCC(N)=O)C(=O)N[C@H](C(=O)NCC(=O)N[C@H](C(=O)N[C@@H](CC(N)=O)C(=O)N1CCC[C@H]1C(=O)N[C@@H](CC(C)C)C(=O)N[C@@H](Cc1ccc(O)cc1)C(=O)N[C@@H](CCCNC(=N)N)C(=O)O)[C@@H](C)O)[C@@H](C)O [penetratin-peptide complex] (H-RQIKIWFQNRRMKWKKRSKAKWQTGTNPLYR-OH; N-terminus and C-terminus assumed)
growth inhibition, dose response ([4]; SW480 full length wild-type β6, 5, 10, 20, 30 μM in DMEM minus foetal bovine serum, FIG. 33): progressive inhibition of proliferation in a dose-response manner | inhibition of cell proliferation (WST-1) [4]: effective in inhibiting cell proliferation | inhibition of cell proliferation (WST-1) (HT29 colon cancer cells): effective in inhibiting cell proliferation

RARAKWDTANNPLYK (HOMO SAPIENS) [β3, peptide corresponding to a region of the β3 cytoplasmic domain]
binding of ERK2 to integrin β subunit cytoplasmic domain peptides (ERK2): also found

RSKAK (HOMO SAPIENS) [5 mer peptide]
binding of ERK2 (thrombin cleaved) (ERK2): Negligible binding

RSKAKNPLYR (HOMO SAPIENS) [10(4), 4 is omitted]
binding of ERK2 (thrombin cleaved) (ERK2): Comparable binding

RSKAKWQTGT (HOMO SAPIENS) [seq. 3, 10 mer test peptide from the β6 cytoplasmic tail]
binding of GST.ERK2 to shorter test peptides (ERK2): substantially less

RSKAKWQTGTNPLYR (HOMO SAPIENS) [seq. 4, 15 mer fragment of the β6 cytoplasmic domain]
inhibition of cell proliferation (WST-1) [4]: Only the carrier penetratin-peptide complex was effective | inhibition of cell proliferation (WST-1) (HT29 colon cancer cells): Only the carrier penetratin-peptide complex was effective | binding of ERK2 to integrin β subunit cytoplasmic domain peptides (ERK2): significant binding | binding of GST.ERK2 to shorter test peptides (ERK2): no reduction in binding

RSKAKWQTGTNPLYRGSTST (Biotin-RSKAKWQTGTNPLYRGSTST) [fragment 2, N-terminally biotinylated synthetic peptide of the β6 cytoplasmic tail]
binding of non-phosphorylated GST.ERK2 to peptide fragment (ERK2; GST.ERK2 0.25 μg/100 μl, peptide 1 μg/100 μl, FIG. 17): significant binding | binding of non-phosphorylated ERK2 (ERK2): Significant binding

RSRARYEMASNPLYR (HOMO SAPIENS) [β5, peptide corresponding to a region of the β5 cytoplasmic domain]
binding of ERK2 to integrin β subunit cytoplasmic domain peptides (ERK2): also found

β6 cytoplasmic tail peptide: peptide of the cytoplasmic tail domain of the integrin β6 subunit (HDRKEVAKFEAERSKAKWQTGTNPLYRGSTSTFKNVTYKHREKQKVDLSTDS; HOMO SAPIENS)
binding of JNK-1 (JNK-1): Significant binding | binding of non-phosphorylated ERK2 (ERK2): Significant binding
